Results taken from the supplement of paper PMC10567573.
± gives the standard deviation.

Assay: protein stability index of a GFP-peptide fusion (GPS, HEK-293T) (PSI 1-6); higher = more stable
[1] = treatment: DMSO, c terminus: a fixed tail appended
[2] = treatment: MLN4924 1 uM, 8 h, c terminus: a fixed tail appended
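Also: 24-mer peptide tiles fused after GFP, lentivirally expressed, FACS-sorted into six equal bins by GFP/DsRed ratio, decoded by Illumina sequencing, PSI is the read-weighted mean bin number.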

| Sequence | protein stability index [1] | protein stability index [2] | protein stability index (treatment: DMSO, c terminus: native) | protein stability index (treatment: MLN4924 1 uM, 8 h, c terminus: native) |
| --- | --- | --- | --- | --- |
| AIMRSPQMVSAIVRTMQNTNDVET [CTNNB1] | 3.77 ± 0.098 | 3.81 ± 0.14 | – | – |
| GHSTDAREMSKTFIIGELHPDDRP [CYB5A] | 4.38 ± 0.15 | 4.66 ± 0.16 | – | – |
| SKHLKEMYQELMEMCHKPDVELLQ [TRIM43] | 2.71 ± 0.26 | 2.7 ± 0.51 | – | – |
| DLLKKAKFHHSDCLSTWLLHFIAT [RHOBTB3] | 2.37 ± 0.44 | 2.34 ± 0.41 | – | – |
| LRGPSPWGFRLVGGRDFSAPLTIS [PDLIM4] | 2.79 ± 0.2 | 2.44 ± 0.22 | – | – |
| DFCKVFLISGVTLDNCVEVGRIAN [KLHL13] | 2.47 ± 1.2 | 2.12 ± 0.47 | – | – |
| ILPKQSRKSMLDAGPDSWGSDAEQ [LCOR] | 4.51 ± 0.15 | 4.55 ± 0.21 | – | – |
| WKYILLGLADVEANYVIVRAYQYT [SLC35F2] | 2.77 ± 0.66 | 2.86 ± 0.26 | – | – |
| LYLLSGSIIAVAMQRGARLPAEVA [POMT2] | 2.81 ± 0.38 | 3.21 ± 0.77 | – | – |
| DKYVGVSSDSVGGFRYSERYDPEP [CLINT1] | 4.22 ± 0.23 | 4.27 ± 0.35 | – | – |
| PQYRSYFMECLVDARMLDHLTKKD [PPFIA4] | 2.7 ± 0.2 | 2.58 ± 0.17 | – | – |
| EGSLWAVGTESQGRDWRHLPTITS [PXN] | 3.23 ± 0.16 | 3.34 ± 0.16 | – | – |
| QGLIGSVEEQLAQLRCEMEQQNQE [KRT17] | 5.3 ± 0.36 | 5.29 ± 0.34 | – | – |
| IYRDSYPRNPTVRWGYVAMKFAQV [SOAT1] | 2.79 ± 0.47 | 2.67 ± 0.53 | – | – |
| PKKEANQAPKSKSGSRPRKPPPRK [LRRC59] | 4.92 ± 0.21 | 5 ± 0.18 | – | – |
| ELSRQVRSSVELELERCRQQAGLL [PPEF2] | 3.23 ± 0.25 | 3.2 ± 0.39 | – | – |
| KSQIMSLSHSPQEDWVLLGMANGQ [TLE6] | 3.15 ± 0.2 | 3.12 ± 0.17 | – | – |
| VSNFLKERTGFSIRPVAGYLSPRD [TPH1] | 2.71 ± 0.33 | 2.95 ± 0.31 | – | – |
| GADPKSVVCAFFKQGQCTKGDKCK [ZC3H15] | 3.82 ± 0.14 | 4.28 ± 0.37 | – | – |
| RIIYMLLITIATFQIAANLSMERY [SLC19A2] | 3.32 ± 0.31 | 2.91 ± 0.12 | – | – |
| FTFLQPLPLSPGVLSSTPDHSFSL [ATF4] | 2.2 ± 0.33 | 2.19 ± 0.33 | – | – |
| VTLRRGLRSRASRCRPRSLIDYKS [FAM189A2] | 2.12 ± 0.33 | 2.23 ± 0.39 | – | – |
| LKDIFMFITRQLKGLEDTKSPQFN [PDS5B] | 2.11 ± 0.058 | 2.54 ± 0.31 | – | – |

| Sequence | protein stability index [1] | protein stability index [2] | protein stability index (treatment: DMSO, c terminus: native) | protein stability index (treatment: MLN4924 1 uM, 8 h, c terminus: native) |
| --- | --- | --- | --- | --- |
| VSNMSGPSGEEEAKVGPGLPDGCQ [CBY2] | 5.46 ± 0.12 | 5.16 ± 0.16 | – | – |
| PGGGDICMYRHALPPGFVLKKDKK [ZC3H15] | 4.29 ± 0.2 | 4.04 ± 0.1 | – | – |
| DSTWLLLRRIRAESGTKGLFAGFL [SLC25A39] | 2.63 ± 0.67 | 2.58 ± 0.53 | – | – |
| ESFGQNYPEEADGTLDCISMALTC [RBBP5] | 3.72 ± 0.26 | 3.53 ± 0.18 | – | – |
| YHIYVALEEEIERNKESPVFAPVY [HMOX1] | 2.32 ± 0.28 | 3.03 ± 0.51 | – | – |
| RYNRKYLMCGGIAFWSLVTLGSSF [SPNS1] | 2.68 ± 0.88 | 2.77 ± 0.96 | – | – |
| DLESQVESLREELICLKKNHEEEV [KRT34] | 4.86 ± 0.24 | 5.13 ± 0.16 | – | – |
| NATDPDEGTNGQLDYSFGDHTSEA [PCDHGC5] | 5.45 ± 0.32 | 5.24 ± 0.12 | – | – |
| PIFMRKDTKMSFQWRIRNLPYPKD [DPCD] | 2.27 ± 0.27 | 2.22 ± 0.069 | – | – |
| LTNSEYRSEQSVKLRRQVIQVVLN [ZER1] | 2.51 ± 0.23 | 2.44 ± 0.48 | – | – |
| EEEKEWAFEESKIDEHHFVAVALR [AASDHPPT] | 3.73 ± 0.37 | 3.84 ± 0.42 | – | – |
| SASSTGDLPKAKTRAADLLVNPLD [SRPK2] | 4.97 ± 0.29 | 4.99 ± 0.33 | – | – |
| VAYRSLGRFEQLGKTAASWCLHVN [FSD1] | 2.6 ± 0.6 | 2.2 ± 0.36 | – | – |
| LPCARVQICRAQGLETLFSKAQEL [ZSWIM9] | 2.87 ± 0.51 | 2.33 ± 0.79 | – | – |
| LLSRNQLSTAASLGPSGLQNHGQH [LCOR] | 3.28 ± 0.095 | 3.46 ± 0.23 | – | – |
| AAQELENQMKERQGLFFDMEAYLP [TMEM120A] | 3.69 ± 0.27 | 3.87 ± 0.21 | – | – |
| NYGGVIKNYFQHREFSFTLKDDIY [PRIM1] | 2.13 ± 0.2 | 2.25 ± 0.08 | – | – |
| ELRNMCDEHIASEEPAEKEDLLQQ [CLCN6] | 5.38 ± 0.18 | 5.45 ± 0.12 | – | – |
| KEAVTGSRLGQGIGPIHLNEIQCT [LOXL2] | 3.77 ± 0.61 | 3.93 ± 0.47 | – | – |
| IDRQKCMAHRTRYPTILQLAGYQ [TEKT4] | – | – | 2.26 ± 0.37 | 2.14 ± 0.35 |
| LNPSKLMEKEINGSKVTCRGLLEY [ATL3] | 2.92 ± 0.29 | 2.96 ± 0.2 | – | – |
| TVVPLDDATQEYKEKLQKCLEPLE [TRIM39] | 5.27 ± 0.13 | 5.22 ± 0.21 | – | – |
| AITRVSDRFSGETSAAALSPMSAA [SMTNL2] | 4.06 ± 0.15 | 3.63 ± 0.29 | – | – |

| Sequence | protein stability index [1] | protein stability index [2] | protein stability index (treatment: DMSO, c terminus: native) | protein stability index (treatment: MLN4924 1 uM, 8 h, c terminus: native) |
| --- | --- | --- | --- | --- |
| AAINSIYSNTDANILFYVVGLRNT [GLT8D2] | 2.97 ± 0.91 | 2.75 ± 0.73 | – | – |
| HHSTQPKRNKRNPIFQDSQDTEVF [FAM104B] | 4.19 ± 0.34 | 4.63 ± 0.27 | – | – |
| EGPSVVKRPAPRTAPRQEKHERTH [SPRY1] | 5.17 ± 0.29 | 5.13 ± 0.2 | – | – |
| PIDPAAWVSHTAAMTGTFPAYGMS [DVL3] | 2.73 ± 0.36 | 2.75 ± 0.18 | – | – |
| NKKRGWRRLAQEPLGLEVDQFLED [NOP53] | 4.45 ± 0.35 | 4.34 ± 0.18 | – | – |
| RSEPIRPIDPAAWVSHTAAMTGTF [DVL3] | 2.99 ± 0.09 | 3.04 ± 0.23 | – | – |
| SIMSTGIVQGSSGAQGSGGGSTSA [CARM1] | 4.85 ± 0.24 | 5.12 ± 1 | – | – |
| SDVHPVALNFMKGCLKMNPDDRLT [CDKL4] | 3.55 ± 0.27 | 3.49 ± 0.18 | – | – |
| DTKGKPTSRTQVYKPPALKKSNSP [ZC2HC1A] | 4.89 ± 0.22 | 4.94 ± 0.18 | – | – |
| YQDDPDLRFLLDQVQLGLRCCGAA [TSPAN10] | 2.56 ± 0.28 | 2.65 ± 0.22 | – | – |
| TPQEPWPGPTAPSPTSRPPWAVDP [PDLIM7] | 4.19 ± 0.21 | 4.28 ± 0.093 | – | – |
| LTNIWMARTCAKQNINAPAPATTS [C22orf31] | 2.51 ± 0.27 | 2.59 ± 0.15 | – | – |
| EPANLDILDTAGQAEFTAMRDQYM [RIT1] | 4.83 ± 0.24 | 4.67 ± 0.2 | – | – |
| PRFHMACPTFRVSIARLEMGPDEY [FBXO3] | 2.82 ± 0.21 | 2.72 ± 0.24 | – | – |
| ADPLQLNKALSIILHLICLLEKVP [FEM1C] | 3 ± 0.24 | 3.16 ± 0.9 | – | – |
| QMLWELVLLGEPLVVMAPSPSESS [DENND6A] | 2.33 ± 0.72 | 2.17 ± 0.49 | – | – |
| LPPALVPAGGLAPGGGRGALLDQI [WAS] | 3.69 ± 0.12 | 3.71 ± 0.25 | – | – |
| SCTVTTVQPMDRLPYQHFSAHFTS [TBX5] | 2.23 ± 0.15 | 2.31 ± 0.17 | – | – |
| LSQLRVLCCEWLRPEKHTKEQILE [ZNF232] | 2.37 ± 0.35 | 2.2 ± 0.22 | – | – |
| WSKTQVLDWISYQVEKNKYDASAI [ELF3] | 2.59 ± 0.2 | 2.48 ± 0.28 | – | – |
| NSQNEVNGWTCLHWACKRNHGQVV [ANKRD40] | 2.57 ± 0.24 | 2.65 ± 0.24 | – | – |
| LKGSRVSILFGHENRVSTLRVSPD [GNB5] | 2.96 ± 0.15 | 3.02 ± 0.29 | – | – |
| EYVPGGELFSYLRNRGRFSSTTGL [PRKX] | 2.53 ± 0.18 | 2.82 ± 0.27 | – | – |

| Sequence | protein stability index [1] | protein stability index [2] | protein stability index (treatment: DMSO, c terminus: native) | protein stability index (treatment: MLN4924 1 uM, 8 h, c terminus: native) |
| --- | --- | --- | --- | --- |
| LDEIPDDEDLDLIPPKSVNPTCMC [FAM219A] | 5.07 ± 0.16 | 5.16 ± 0.31 | – | – |
| VIGALLRFNQAILVSRHDPASRRR [LPCAT4] | 2.28 ± 0.22 | 2.36 ± 0.19 | – | – |
| SVPASDPRSCSSGPAGPYLLSKKG [PLEKHN1] | 4.65 ± 0.15 | 4.69 ± 0.089 | – | – |
| SKVLSLQDLCCRTIVSCTPVHLVD [RAB40A] | 3.08 ± 0.27 | 2.98 ± 0.31 | – | – |
| TFNFISSLKAICTEIANCSLKVKF [PLD5] | 2.68 ± 0.56 | 3.29 ± 0.1 | – | – |
| GLPRSRDCRVDLGSEVYRMLREPA [PDLIM4] | 3.08 ± 0.15 | 3.39 ± 0.2 | – | – |
| NTCSVITTLKGHEGSVACLWWDPI [WDFY1] | 2.09 ± 0.39 | 2.34 ± 0.46 | – | – |
| TGIVSVAFLLLPLPDELGSQLPQV [MOSPD3] | 2.75 ± 0.59 | 2.72 ± 0.86 | – | – |
| VQWKEPEEPNGQIQGYRVYYTMDP [PTPRD] | 3.3 ± 0.16 | 3.17 ± 0.23 | – | – |
| HGGLYKPVQCHPSTGYCWCVLVDT [SMOC2] | 2.46 ± 0.86 | 2.39 ± 0.74 | – | – |
| RVLLTGLHAVADIHCENCKTTLGW [YPEL3] | 2.42 ± 0.69 | 2.27 ± 0.29 | – | – |
| RSGGPPPKKSAPSAVARSNSWMGS [RBMY1A1] | 3.7 ± 0.27 | 3.64 ± 0.22 | – | – |
| HEPLSKERVEAFSDGVYAIVATLL [TMEM175] | 2.15 ± 0.28 | 2.15 ± 0.11 | – | – |
| EGRLRYPSRREPPPRRSRSRSHDR [CLK3] | 5.33 ± 0.31 | 5.45 ± 0.1 | – | – |
| HYRELLDSLPMDAYTHGCILHPEL [GDAP1] | 2.36 ± 0.2 | 2.43 ± 0.034 | – | – |
| AKVNYVKNNICFMSHHQEELVPKQ [SLC2A12] | 3 ± 0.41 | 3.16 ± 0.41 | – | – |
| APPLPGAESFPGSQVMGSGRGSLS [PLEKHN1] | 4.82 ± 0.28 | 4.61 ± 0.2 | – | – |
| FTEKLWPLFYPGIRAGRKNAAPLT [TRIM39] | 2.59 ± 0.74 | 2.25 ± 0.16 | – | – |
| AEPSRFSSSDSDFDDEEPRKFYVH [FCHO1] | 4.87 ± 0.18 | 4.87 ± 0.13 | – | – |
| CAKYTYPVCSALLDPVLQAPGTGP [FANCE] | 2.65 ± 0.14 | 2.26 ± 0.17 | – | – |
